Substitutions are numbered along the chain they refer to.
B1: 46C3 (antibody, V domains shown)
VH: EVQLQQSGAELVKPGASVKLSCTASDFNIIDTYIHWVKQRPEQGLEWIGRIDPANGNTKYDPKFQDKAALTSDTDSNTAYLLFNSLTSEDTAVYYCARGTSYSWFAYWGQGTLVSVSA
VL: AVLMTQTPLSLPVSLGDQASISCRSSQNIVHSDGNTYLEWYLQKPGQSPKLLIYKVSNRFSGVPDRFSGSGSGRDFTLKISRVEAGDLGVYYCFQGSHVLTFGAGTRLELK
notes: murine hybridoma-derived anti-KLB antibody
B2: 14C6 (antibody, V domains shown)
VH: QIQLQQSGAELMKPGASVRMSCKASGYTFSSYWIEWVKQRSGHGLEWIGEIFPGGGSTIYNENFRDKATFTADTSSNTAYMQLSSLTSEDSAVYFCARRGYYDAAWFDYWGQGTLVTVSA
VL: QIVLTQSPAIMSASPGERVTLTCSASSSLSSSYLYWYQQKPGSSPKLWIYGASNLASGVPGRFSGSGSGTSYSLTISSMEAEDAASYFCHQWSSYPLTFGSGTKLELK
notes: as for B1
B3: 24A1 (antibody, V domains shown)
VH: QVQLKQSGAELVRPGTSVTLSCKASGYTFTDYEMHWMKQTPVYGLEWIGAIWPENADSVYNQKFKGKVTLTADKSSSTAYMDLRSLTSEDSAVYYCTREGGNYWGQGTTLTVSS
VL: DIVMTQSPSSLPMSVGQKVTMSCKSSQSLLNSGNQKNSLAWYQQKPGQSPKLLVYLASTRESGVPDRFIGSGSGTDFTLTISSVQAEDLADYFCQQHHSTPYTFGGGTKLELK
notes: as for B1
B4: 5F8 (antibody, V domains shown)
VH: EVQLQQSGTELVRPGASVKLSCTSSDFNIKDTYIHWVKQRPEQGLDWLGRIDPANGNTKYDPKFQGKAAMTSDTSSNTAYLRLSSLTSEDTAVYYCASSGNYGAMDYWGQGTSVTVSS
VL: ESVLTQSPALMSASLGEKVTMTCRASSSVNHMYWYQQKSDASPKLWIYYTSTLAPGVPARFSGSGSGNSYSLTISSMEGEDAATYYCQQFTISPSMYTFGGGTKLEIK
notes: as for B1
B5: 8E1 (antibody, V domains shown)
VH: EVQLQQSGAELVKPGASVKLSCTAADFNIKDTYMHWVKQRPEQGLEWIGRIDPSNGNAKYDPKFQGKASITADSSSNTAYLHLSSLTSEDTAVYYCASRALGNGYALGYWGQGTSVTVSS
VL: DIQMTQSSSYLSVSLGGSVTITCKASDHINNWLAWYQQKPGNAPRLLIYGTTNLETGVPSRFSGSGSGRDYILSITSLQSEDVASYYCQQYWNTPFTFGSGTKLEIK
notes: as for B1
B6: 25F7 (antibody, V domains shown)
VH: EVQLQQSGAELLKPGASVRLSCTASGFNIQDTFTHWVRQRPEQGLEWIGRIDPSNGNTKYDPKFQGKAKILADTSSNTAYLQLIGLTSEDTAVYYCASRALGNGYAMDYWGQGTSVTVSS
VL: B5 VL with S18R, Y49S, T51A, T52S, V58I, R69K, I72T, S74T, S80T, S85T
notes: as for B1
B7: 11F1 (antibody, V domains shown)
VH: EVQLVESGGGLVKPGGSLKLSCAPSGFTFSSYGISWVRQTPEKRLEWVATVSSGGRYTYYPDSVKGRFTISRDNAENTLYLQMSSLRSEDTAMYYCTRGGDGYALDYWGQGTSVTVSS
VL: DIQMTQTTSSLSASLGDRVTIICSASQVISNYLNWYQQKPDGTVKLLIYFTSSLRSGVPSRFSGSGSGTDYSLTISNLEPEDVATYFCQQYSKLPWTFGGGTKLELK
notes: as for B1
B8: 14E6 (antibody, V domains shown)
VH: EVPLQQSGPELVKPGATVKISCKPSGDTFTEYTMNWVRQSHGKSLEWIGGINPNNGETSYNQKFKGKATLTVDKSSSTAFMDLRILTSEDSAVYFCARKTTNYWGQGTTLIVSS
VL: DIQMTQSPSSLSASLGERVSLTCRASQEISGYLSWLQQKPDGTIKRLIYAASTLDSGVPRRFSGSRSGSDYSLTISSLESEDFADYYCLQYGSYPWTFGGGTKLELK
notes: as for B1
B9: 11D4 (antibody, V domains shown)
VH: QVQVKESGPGLVAPSQSLSITCTVSGFSLTNYGVSWIRQPPGKGLEWLGVIWGDGSINYHSALISRLTITKDNSKSQVFLKLNSLEADDTATYYCAKTHDWFDYWGQGTLVTVSA
VL: DIQMTQTPSSLSASLGDRVTINCRASQDISNYFNWYQQKPNGTIKLLIYYTSRLQSGVPSRFSGSGSGTDYSLTISNLEQEDKATYFCHQVRTLPWTFGGGTKLEIK
notes: murine hybridoma-derived anti-KLB antibody; also called KLBmAb5
B10: 8C5 (antibody, V domains shown)
VH: QVQLKQSGPGLVQPSQSLSVACTVSDFSLTTYGVHWVRQSPGKGLEWLGVIWSGGSTDYNAAFISRLTISKDNSKSQVFFKMNSLQTTDTAIYYCARDYGSTYVDAIDYWGQGTSVTVSS
VL: DIVLTQSPTSLAVSLGQRATISCRASESVESYGNRYMTWYQQKPGQPPKLLIYRAANLQSGIPARFSGSGSRTDFTLTIDPVEADDVATYYCQQSNEDPWTFGGGTKVEIK
notes: murine hybridoma-derived anti-KLB antibody; also called KLBmAb1
B11: 12A11 (antibody, V domains shown)
VH: EVKFLESGGGLVQPGGSLRLSCAVSGIDFSRYWMSWVRQAPGKGLEWIGEISPDSSTINYTPSLKDKFVISRDNAKNTLYLQMSKVRSADTALYYCARPSPALDYWGQGTLVTVSA
VL: DIVMTQSPATLSVTPGDRVSLSCRASQSISDYVYWYQQKSHESPRLLIIYASQSISGIPSRFSGSGSGSDFTLSINSVEPEDVGVYYCQNGHNFPYTFGGGTKLEIK
notes: murine hybridoma-derived anti-KLB antibody; also called KLBmAb2
B12: 8H7 (antibody, V domains shown)
VH: QVQLQQPGAEIVKPGASVRLSCKASGYSFTSYWIHWVKQRPGQGLEWIGEIDPSVSNSNYNQKFKGKATLTADKSSSTAYMQLSGLTSEDSAVYFCVRLGVMVYGSSPFWFAYWGQGTLVTVSA
VL: DIVMTQSQKFMSTSVGDRVSITCKASQFVSDAVAWYQQKPGQSPKLLICSASYRYTGVPDRFTGSGSGTDFTFTISSVRTEDLAVYYCQQHYIVPYTFGGGTTLEIE
notes: as for B1
B13: 21H3 (antibody, V domains shown)
VH: B12 VH
VL: B12 VL
notes: as for B1
B14: 12B8 (antibody, V domains shown)
VH: QIQLVQSGPELKKPGETAKISCKASGYAFSNYGMNWVKQAPGKDLKWMGWIDTDTGEATYTDDFKGRFVFSLETSASTAYLQINNLKNEDMATYFCAREEYGLFGFPYWGHGTLVTVSA
VL: DIQMTQSSSSFSVSLGDRVTITCKASEDIYNRLAWYQQKPGSAPRLLISAATSLETGVPSRFSGSGSGKDYTLSITSLQTEDVATYYCQQYWSNPLTFGAGTKLEIK
notes: as for B1
B15: 14C10 (antibody, V domains shown)
VH: QVTLKESGPGILQPSQTLSLTCSFSGFSLSTSAMGIGWIRQPSGKGLEWLAHIWWDDDKRYNPALKSRLTISKDTSRNQVFLKIASVDTADTATYFCARIDGIYDGSFYAMDYWGQGTSVTVSS
VL: DIVLTQSPASLAVSLGQRATISCRASESVDSYGNSFMHWYQQKPGQPPKLLIYRASNLESGIPARFSGSGSRTDFTLTINPVEADDVANYYCQQSNEDYTFGGGTKLEIK
notes: murine hybridoma-derived anti-KLB antibody; also called KLBmAb3
B16: 6C1 (antibody, V domains shown)
VH: QVQLQQSGDELMKPGASVKISCKVTGNTFSSYWIEWVKQRPGHGLEWIGEILPGSDSTKYVEKFKVKATFTADTSSNTAYMQLSSLTSEDSAVYYCARGGYHYPGWLVYWGQGTLVTVSA
VL: DIVMTQSQKFMSTSVGDRVSVTCKASQNVDSYVAWYQQKAGQSPKPLIYSASYRFSGVPDRFTGSGSGTEFTLTISNVQSEDLAEYFCQQYNISPYTFGGGTKLEIK
notes: murine hybridoma-derived anti-KLB antibody; also called KLBmAb4

How the values were obtained:
[1] = molecular target: T1, human KLB expressed on cells (human, UniProt Q86Z14 53-1044); experiment: FACS on cells expressing hKLB, hKLA and chimeras; domain of hKLB recognized
T1 construct: on transfected 293 / HEK293 cells; also called hKLB; beta-Klotho

[2] = molecular target: T1, human KLB expressed on cells; experiment: FACS on 293 cells expressing hKLB, antibody at 0.8 µg/ml, median shift
hKLB-ECD-HIS protein = molecular target: T2, hKLB-ECD-HIS protein (human, UniProt Q86Z14 53-996); experiment: ELISA on hKLB-ECD-HIS protein, chimeric IgG (murine variable, hIgG1 constant regions), OD450
T2 construct: recombinant hKLB-ECD-HIS protein (R&D Systems); also called recombinant KLB-ECD protein; not shown: HIS tag
Excerpt: In addition, some of the antibodies were ranked by ELISA. For these experiments, anti-KLB antibodies that were chimeric recombinant IgG with murine variable regions and hIgG1 constant regions were used to measure binding to hKLB-ECD-HIS protein.

Row | Binder | binding result [1] | binding result [2] | binding result (hKLB-ECD-HIS protein)
1 | B1 | binds | – | –
2 | B2 | – | binds | –
3 | B3 | – | binds | –
4 | B4 | – | binds | –
5 | B5 | – | binds | binds
6 | B6 | – | binds | –
7 | B7 | binds | – | binds
8 | B8 | binds | – | binds
9 | B9 | – | binds | –
10 | B10 | – | binds | binds
11 | B11 | – | binds | –
12 | B12 | – | binds | –
13 | B13 | binds | – | –
14 | B14 | – | binds | –
15 | B15 | – | binds | –
16 | B16 | – | binds | –
